From patent publication US20240376151A1, “STAPLED PEPTIDES AND METHODS THEREOF” (FOG PHARMACEUTICALS, INC., priority 2022, published 2024)

Columns and labels:
beta-catenin = target: T1, beta-catenin (Homo sapiens, UniProt P35222); assay: Phage Library Screening with NGS, beta-catenin; format: binding; conditions: for Target Concentration 1000 (phage screen NGS readout): beta-catenin target concentration 1000
T1 construct: made in house; host or cells: E. coli BL21 (DE3) pLysS
T1 sequence (P35222 134-665): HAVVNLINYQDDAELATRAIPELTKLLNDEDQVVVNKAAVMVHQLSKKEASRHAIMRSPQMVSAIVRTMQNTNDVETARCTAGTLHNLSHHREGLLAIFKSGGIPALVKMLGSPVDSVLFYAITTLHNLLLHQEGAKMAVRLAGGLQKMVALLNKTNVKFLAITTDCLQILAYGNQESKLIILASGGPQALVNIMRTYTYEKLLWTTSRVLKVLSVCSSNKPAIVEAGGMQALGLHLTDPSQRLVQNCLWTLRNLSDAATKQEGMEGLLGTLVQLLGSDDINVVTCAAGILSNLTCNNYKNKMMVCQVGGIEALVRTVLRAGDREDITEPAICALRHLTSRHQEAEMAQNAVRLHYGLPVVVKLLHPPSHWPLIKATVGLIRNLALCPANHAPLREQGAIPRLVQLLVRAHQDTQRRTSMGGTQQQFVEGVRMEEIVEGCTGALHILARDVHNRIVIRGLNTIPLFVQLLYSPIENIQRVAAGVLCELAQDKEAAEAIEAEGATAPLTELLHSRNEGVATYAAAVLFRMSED

RNF31 PUB domain = target: T2, RNF31 PUB domain (Homo sapiens, UniProt Q96EP0); assay: Phage Library Screening with NGS, RNF31 PUB domain; format: binding; conditions: for Phage library screen NGS readout, Target Concentration 10 / Phage library screen NGS readout, Target Concentration 30 / Phage library screen NGS readout, Target Concentration 100 / Phage library screen NGS readout, Target Concentration 300 / Phage library screen NGS readout, Target Concentration 1000: RNF31 PUB domain clusters C41-C45; for Phage library screen NGS readout, BLANK: clusters C41-C45
T2 construct: MBP-TEV (N, cleaved yes); made in house; host or cells: E. coli BL21 (DE3) pLysS
T2 sequence (Q96EP0 1-179): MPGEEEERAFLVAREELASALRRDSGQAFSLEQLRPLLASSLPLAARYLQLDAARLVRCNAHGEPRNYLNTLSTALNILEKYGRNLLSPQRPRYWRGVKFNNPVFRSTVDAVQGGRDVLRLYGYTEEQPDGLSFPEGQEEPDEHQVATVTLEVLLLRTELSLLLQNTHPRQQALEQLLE

[1] = target concentration 1000, first column
[2] = target concentration 1000, second column

Row | Phage library screen NGS readout, Target Concentration 10 (RNF31 PUB domain) | Phage library screen NGS readout, Target Concentration 30 (RNF31 PUB domain) | Phage library screen NGS readout, Target Concentration 100 (RNF31 PUB domain) | Phage library screen NGS readout, Target Concentration 300 (RNF31 PUB domain) | Phage library screen NGS readout, Target Concentration 1000 (RNF31 PUB domain; [1]) | Phage library screen NGS readout, Target Concentration 1000 (RNF31 PUB domain; [2]) | Phage library screen NGS readout, BLANK (RNF31 PUB domain; column 1 of 5) | Phage library screen NGS readout, BLANK (RNF31 PUB domain; column 2 of 5) | Phage library screen NGS readout, BLANK (RNF31 PUB domain; column 3 of 5) | Phage library screen NGS readout, BLANK (RNF31 PUB domain; column 4 of 5) | Phage library screen NGS readout, BLANK (RNF31 PUB domain; column 5 of 5) | Sequence | further results
1 | – | – | – | – | – | – | – | – | – | – | – | DPAVLECHIAAWECNHT | Target Concentration BLANK (phage screen NGS readout) (beta-catenin; first column): 0; Target Concentration BLANK (phage screen NGS readout) (beta-catenin; fourth column): 0; Target Concentration BLANK (phage screen NGS readout) (beta-catenin; second column): 0; Target Concentration BLANK (phage screen NGS readout) (beta-catenin; third column): 0; Target Concentration 10 (phage screen NGS readout) (beta-catenin; beta-catenin target concentration 10, no competitor): 0; Target Concentration 30 (phage screen NGS readout) (beta-catenin; beta-catenin target concentration 30, no competitor): 1; Target Concentration 100 (phage screen NGS readout) (beta-catenin; beta-catenin target concentration 100, no competitor): 22; Target Concentration 300 (phage screen NGS readout) (beta-catenin; beta-catenin target concentration 300, no competitor): 67; Target Concentration 1000 (phage screen NGS readout) (beta-catenin; first 1000 column): 140; Target Concentration 1000 (phage screen NGS readout) (beta-catenin; second 1000 column): 55
2 | 0 | 0 | 0 | 1 | 7 | 4 | 0 | 0 | 1 | 0 | 0 | DPAYDWCLYAAEYCHTD | –
3 | 0 | 1 | 0 | 2 | 10 | 15 | 0 | 4 | 0 | 0 | 0 | DPAWEHCLYAAYDCTHE | –
4 | 0 | 0 | 0 | 6 | 9 | 5 | 0 | 0 | 0 | 0 | 4 | DPAFQFCVEAAVACSYY | –
5 | 0 | 0 | 0 | 3 | 5 | 5 | 0 | 0 | 0 | 0 | 0 | DPAQMECIDAAIMCSYT | –
6 | 1 | 0 | 0 | 4 | 22 | 10 | 0 | 0 | 0 | 0 | 0 | DPAEDWCMYAAWDCQME | –
7 | 0 | 0 | 0 | 0 | 11 | 10 | 1 | 0 | 0 | 0 | 0 | DPAYEDCADAAMYCDMD | –
8 | 0 | 0 | 0 | 1 | 6 | 6 | 0 | 1 | 0 | 0 | 0 | DPAYYTCDWAAIYCDYH | –
9 | 0 | 0 | 1 | 4 | 13 | 6 | 1 | 2 | 2 | 1 | 0 | DPAYWQCIYAAWDCDQM | –
10 | 1 | 3 | 3 | 3 | 7 | 8 | 2 | 2 | 0 | 0 | 0 | DPAIYQCSLAADICSTY | –
11 | 0 | 1 | 0 | 4 | 5 | 7 | 0 | 0 | 0 | 0 | 0 | DPALRDCLDAAIMCTYT | –
12 | 0 | 0 | 4 | 61 | 350 | 353 | 1 | 0 | 3 | 1 | 0 | DPARDWCLYAAYDCYTA (Ac-DPARDWCLYAAYDCYTA-NH2; not fully specified (bridges); cysteine pairing not given here) | –
13 | 0 | 0 | 0 | 4 | 15 | 11 | 0 | 0 | 0 | 2 | 0 | DPAVVDCWDAAVQCTYY | –
14 | 0 | 1 | 0 | 4 | 9 | 7 | 1 | 1 | 1 | 0 | 0 | DPAYWDCLYAAWSCDIL | –
15 | 2 | 0 | 0 | 3 | 3 | 8 | 2 | 9 | 0 | 2 | 3 | DPAADDCEWAALYCSFH | –
